Test results as given in patent US20240360203A1.
Like-named read-outs stand apart in the source and are kept apart here.

Assays:
Assay in all cases: cell-based or functional assay
[1] = target: SARS-CoV-2 BA.1 Spike on pseudovirus (SARS-CoV-2) (UniProt P0DTC2)
[2] = target: SARS-CoV-2 BA.2 Spike on pseudovirus (SARS-CoV-2) (UniProt P0DTC2)
[3] = target: SARS-CoV-2 BA.2.12.1 Spike on pseudovirus (SARS-CoV-2) (UniProt P0DTC2)
[4] = target: SARS-CoV-2 BA.4/5 Spike on pseudovirus (SARS-CoV-2) (UniProt P0DTC2)
[5] = target: SARS-CoV-2 Delta Spike on pseudovirus (SARS-CoV-2) (UniProt P0DTC2)
[6] = target: SARS-CoV-2 BA.1 Spike on pseudovirus (SARS-CoV-2) (UniProt P0DTC2); remark: listed apart in the source
[7] = target: SARS-CoV-2 BA.2 Spike on pseudovirus (SARS-CoV-2) (UniProt P0DTC2); remark: listed apart in the source
[8] = target: SARS-CoV-2 BA.2.12.1 Spike on pseudovirus (SARS-CoV-2) (UniProt P0DTC2); remark: listed apart in the source
[9] = target: SARS-CoV-2 BA.4/5 Spike on pseudovirus (SARS-CoV-2) (UniProt P0DTC2); remark: listed apart in the source
[10] = target: SARS-CoV-2 Delta Spike on pseudovirus (SARS-CoV-2) (UniProt P0DTC2); remark: listed apart in the source
[11] = target: SARS-CoV-2 BA.1 spike protein (SARS-CoV-2)
[12] = target: SARS-CoV-2 BA.1.1 spike protein (SARS-CoV-2)
[13] = target: SARS-CoV-2 BA.2 spike protein (SARS-CoV-2)
[14] = target: SARS-CoV-2 BA.2.12.1 spike protein (SARS-CoV-2)
[15] = target: SARS-CoV-2 BA.2.3.20 spike protein (SARS-CoV-2)
[16] = target: SARS-CoV-2 BA.2.75 spike protein (SARS-CoV-2)
[17] = target: SARS-CoV-2 BA.2.75.2 spike protein (SARS-CoV-2)
[18] = target: SARS-CoV-2 BA.4.6 spike protein (SARS-CoV-2)
[19] = target: SARS-CoV-2 BA.4/5 spike protein (SARS-CoV-2)
[20] = target: SARS-CoV-2 BF.7 spike protein (SARS-CoV-2)
[21] = target: SARS-CoV-2 BF.7.14 spike protein (SARS-CoV-2)
[22] = target: SARS-CoV-2 BN.1 spike protein (SARS-CoV-2)
[23] = target: SARS-CoV-2 BQ.1 spike protein (SARS-CoV-2)
[24] = target: SARS-CoV-2 BQ.1.1 spike protein (SARS-CoV-2)
[25] = target: SARS-CoV-2 CH.1.1 spike protein (SARS-CoV-2)
[26] = target: SARS-CoV-2 Delta (B.1.617.2) spike protein (SARS-CoV-2)
[27] = target: SARS-CoV-2 XBB.1 spike protein (SARS-CoV-2)
[28] = target: SARS-CoV-2 XBB.1.5 spike protein (SARS-CoV-2)
[29] = target: SARS-CoV-2 BA.4/5 Spike on pseudovirus (SARS-CoV-2) (UniProt P0DTC2); remark: listed apart in the source
[30] = target: SARS-CoV-2 Delta (B.1.617.2) spike protein (SARS-CoV-2); remark: listed apart in the source
[31] = target: SARS-CoV-2 Delta (B.1.617.2) spike protein (SARS-CoV-2); remark: listed apart in the source
[32] = target: SARS-CoV-2 Delta (B.1.617.2) spike protein (SARS-CoV-2); remark: listed apart in the source
[33] = target: SARS-CoV-2 BQ.1.1 spike protein (SARS-CoV-2); remark: listed apart in the source
[34] = target: SARS-CoV-2 Delta (B.1.617.2) spike protein (SARS-CoV-2); remark: listed apart in the source
[35] = target: SARS-CoV-2 XBB.1.5 spike protein (SARS-CoV-2); remark: listed apart in the source
[36] = target: SARS-CoV-2 BQ.1.1 spike protein (SARS-CoV-2); remark: listed apart in the source
[37] = target: SARS-CoV-2 XBB.1.5 spike protein (SARS-CoV-2); remark: listed apart in the source
[38] = target: SARS-CoV-2 BQ.1.1 spike protein (SARS-CoV-2); remark: listed apart in the source
[39] = target: SARS-CoV-2 XBB.1.5 spike protein (SARS-CoV-2); remark: listed apart in the source
[40] = target: SARS-CoV-2 BQ.1.1 spike protein (SARS-CoV-2); remark: listed apart in the source
[41] = target: SARS-CoV-2 XBB.1.5 spike protein (SARS-CoV-2); remark: listed apart in the source

AZD1061 (antibody)
% neutralization at 4.5 µg/ml, pseudovirus [1]: 83.9%
% neutralization at 4.5 µg/ml, pseudovirus [2]: 99.7%
% neutralization at 4.5 µg/ml, pseudovirus [3]: 99.8%
% neutralization at 4.5 µg/ml, pseudovirus [4]: 96.7%
% neutralization at 4.5 µg/ml, pseudovirus [5]: 100%
IC50, pseudovirus neutralization [6]: 1220 ng/mL
IC50, pseudovirus neutralization [7]: 5.8 ng/mL
IC50, pseudovirus neutralization [8]: 5.1 ng/mL
IC50, pseudovirus neutralization [9]: 41.2 ng/mL
IC50, pseudovirus neutralization [10]: 5.9 ng/mL

AZD8895 (antibody)
% neutralization at 4.5 µg/ml, pseudovirus [1]: 96.5%
% neutralization at 4.5 µg/ml, pseudovirus [2]: 93.9%
% neutralization at 4.5 µg/ml, pseudovirus [3]: 94.2%
% neutralization at 4.5 µg/ml, pseudovirus [4]: 25.8%
% neutralization at 4.5 µg/ml, pseudovirus [5]: 102%
IC50, pseudovirus neutralization [6]: 1160 ng/mL
IC50, pseudovirus neutralization [7]: 608 ng/mL
IC50, pseudovirus neutralization [8]: 415 ng/mL
IC50, pseudovirus neutralization [10]: 0.5 ng/mL

Bebtelovimab (antibody)
pseudovirus neutralization EC50 [11]: 0.17 ng/mL
pseudovirus neutralization EC80 [11]: 1.8 ng/mL
pseudovirus neutralization EC90 [11]: 7.2 ng/mL
pseudovirus neutralization Emax (% neutralization) [11]: 99.8
pseudovirus neutralization EC50 [12]: 0.12 ng/mL
pseudovirus neutralization EC80 [12]: 1.3 ng/mL
pseudovirus neutralization EC90 [12]: 5.6 ng/mL
pseudovirus neutralization Emax (% neutralization) [12]: 99.9
pseudovirus neutralization EC50 [13]: 0.2 ng/mL
pseudovirus neutralization EC80 [13]: 1.4 ng/mL
pseudovirus neutralization EC90 [13]: 4.4 ng/mL
pseudovirus neutralization Emax (% neutralization) [13]: 99.9
pseudovirus neutralization EC50 [14]: 0.2 ng/mL
pseudovirus neutralization EC80 [14]: 1.2 ng/mL
pseudovirus neutralization EC90 [14]: 3.6 ng/mL
pseudovirus neutralization Emax (% neutralization) [14]: 99.9
pseudovirus neutralization EC50 [15]: 12 ng/mL
pseudovirus neutralization EC80 [15]: 360 ng/mL
pseudovirus neutralization EC90 [15]: 2600 ng/mL
pseudovirus neutralization Emax (% neutralization) [15]: 97.9
pseudovirus neutralization EC50 [16]: 0.65 ng/mL
pseudovirus neutralization EC80 [16]: 8.2 ng/mL
pseudovirus neutralization EC90 [16]: 36 ng/mL
pseudovirus neutralization Emax (% neutralization) [16]: 99.5
pseudovirus neutralization EC50 [17]: 0.46 ng/mL
pseudovirus neutralization EC80 [17]: 6.3 ng/mL
pseudovirus neutralization EC90 [17]: 29 ng/mL
pseudovirus neutralization Emax (% neutralization) [17]: 99.5
pseudovirus neutralization EC50 [18]: 0.2 ng/mL
pseudovirus neutralization EC80 [18]: 2.5 ng/mL
pseudovirus neutralization EC90 [18]: 11 ng/mL
pseudovirus neutralization Emax (% neutralization) [18]: 99.6
pseudovirus neutralization EC50 [19]: 0.073 ng/mL
pseudovirus neutralization EC80 [19]: 1.2 ng/mL
pseudovirus neutralization EC90 [19]: 6.4 ng/mL
pseudovirus neutralization Emax (% neutralization) [19]: 99.8
pseudovirus neutralization EC50 [20]: 0.11 ng/mL
pseudovirus neutralization EC80 [20]: 1.7 ng/mL
pseudovirus neutralization EC90 [20]: 8.5 ng/mL
pseudovirus neutralization Emax (% neutralization) [20]: 99.8
pseudovirus neutralization EC50 [21]: 0.22 ng/mL
pseudovirus neutralization EC80 [21]: 1.4 ng/mL
pseudovirus neutralization EC90 [21]: 4.1 ng/mL
pseudovirus neutralization Emax (% neutralization) [21]: 99.8
pseudovirus neutralization EC50 [22]: 0.467 ng/mL
pseudovirus neutralization EC80 [22]: 5.3 ng/mL
pseudovirus neutralization EC90 [22]: 22 ng/mL
pseudovirus neutralization Emax (% neutralization) [22]: 99.4
pseudovirus neutralization Emax (% neutralization) [23]: 72.2
pseudovirus neutralization Emax (% neutralization) [24]: 53
pseudovirus neutralization Emax, TMPRSS2-Vero E6 (bebtelovimab + isotype) (% neutralization) [24]: 40.5
pseudovirus neutralization Emax, Vero E6 (bebtelovimab + isotype) (% neutralization) [24]: 59.1
pseudovirus neutralization Emax (% neutralization) [25]: 5.32
pseudovirus neutralization EC50 [26]: 3.8 ng/mL
pseudovirus neutralization EC50, TMPRSS2-Vero E6 (bebtelovimab + isotype) [26]: 1.6 ng/mL
pseudovirus neutralization EC50, Vero E6 (bebtelovimab + isotype) [26]: 0.63 ng/mL
pseudovirus neutralization EC80 [26]: 23 ng/mL
pseudovirus neutralization EC80, TMPRSS2-Vero E6 (bebtelovimab + isotype) [26]: 13 ng/mL
pseudovirus neutralization EC80, Vero E6 (bebtelovimab + isotype) [26]: 4.2 ng/mL
pseudovirus neutralization EC90 [26]: 66 ng/mL
pseudovirus neutralization EC90, TMPRSS2-Vero E6 (bebtelovimab + isotype) [26]: 43 ng/mL
pseudovirus neutralization EC90, Vero E6 (bebtelovimab + isotype) [26]: 13 ng/mL
pseudovirus neutralization Emax (% neutralization) [26]: 99.9
pseudovirus neutralization Emax, TMPRSS2-Vero E6 (bebtelovimab + isotype) (% neutralization) [26]: 99.7
pseudovirus neutralization Emax, Vero E6 (bebtelovimab + isotype) (% neutralization) [26]: 99.7
pseudovirus neutralization Emax (% neutralization) [27]: 10.8
pseudovirus neutralization Emax (% neutralization) [28]: 2.01
pseudovirus neutralization Emax, TMPRSS2-Vero E6 (bebtelovimab + isotype) (% neutralization) [28]: 2.93
pseudovirus neutralization Emax, Vero E6 (bebtelovimab + isotype) (% neutralization) [28]: 4.21
IC50, pseudovirus neutralization [29]: 0.3 ng/mL
pseudovirus neutralization EC50, Vero E6 (bebtelovimab + isotype) [30]: 0.44 ng/mL
pseudovirus neutralization EC80, Vero E6 (bebtelovimab + isotype) [31]: 3.5 ng/mL
pseudovirus neutralization EC90, Vero E6 (bebtelovimab + isotype) [32]: 12 ng/mL
pseudovirus neutralization Emax, Vero E6 (bebtelovimab + isotype) (% neutralization) [33]: 55.6
pseudovirus neutralization Emax, Vero E6 (bebtelovimab + isotype) (% neutralization) [34]: 99.7
pseudovirus neutralization Emax, Vero E6 (bebtelovimab + isotype) (% neutralization) [35]: 0.55

Sotrovimab VH/VL (human IgG1 molecule expressing the same variable regions of Sotrovimab) (antibody)
% neutralization at 4.5 µg/ml, pseudovirus [1]: 99.4%
% neutralization at 4.5 µg/ml, pseudovirus [2]: 73.1%
IC50, pseudovirus neutralization [2]: 704 ng/mL
% neutralization at 4.5 µg/ml, pseudovirus [3]: 76.9%
IC50, pseudovirus neutralization [3]: 1200 ng/mL
% neutralization at 4.5 µg/ml, pseudovirus [4]: 60.5%
IC50, pseudovirus neutralization [4]: > 4500 ng/mL
% neutralization at 4.5 µg/ml, pseudovirus [5]: 101%
IC50, pseudovirus neutralization [5]: 65 ng/mL
IC50, pseudovirus neutralization [6]: 63.3 ng/mL
IC50, pseudovirus neutralization [7]: 392 ng/mL
IC50, pseudovirus neutralization [8]: 714 ng/mL
IC50, pseudovirus neutralization [9]: 666 ng/mL
IC50, pseudovirus neutralization [10]: 12.3 ng/mL
IC50, pseudovirus neutralization [29]: 424 ng/mL

Sotrovimab VH/VL-hamIgG2a (antibody)
pseudovirus neutralization EC50, Vero E6 [13]: 361 ng/mL

Sotrovimab VH/VL-huIgG1 (antibody)
pseudovirus neutralization EC50, Vero E6 [13]: 862 ng/mL

Sotrovimab VH/VL-huIgG1-LS (antibody)
pseudovirus neutralization EC50, Vero E6 [13]: 851 ng/mL
pseudovirus neutralization EC50, Vero E6 (sotrovimab VH/VL-huIgG1-LS + isotype) [36]: 1200 ng/mL
pseudovirus neutralization EC50, Vero E6 (sotrovimab VH/VL-huIgG1-LS + isotype) [30]: 7.9 ng/mL
pseudovirus neutralization EC50, Vero E6 (sotrovimab VH/VL-huIgG1-LS + isotype) [37]: 170 ng/mL
pseudovirus neutralization EC80, Vero E6 (sotrovimab VH/VL-huIgG1-LS + isotype) [38]: 4400 ng/mL
pseudovirus neutralization EC80, Vero E6 (sotrovimab VH/VL-huIgG1-LS + isotype) [31]: 42 ng/mL
pseudovirus neutralization EC80, Vero E6 (sotrovimab VH/VL-huIgG1-LS + isotype) [39]: 680 ng/mL
pseudovirus neutralization EC90, Vero E6 (sotrovimab VH/VL-huIgG1-LS + isotype) [40]: 9600 ng/mL
pseudovirus neutralization EC90, Vero E6 (sotrovimab VH/VL-huIgG1-LS + isotype) [32]: 110 ng/mL
pseudovirus neutralization EC90, Vero E6 (sotrovimab VH/VL-huIgG1-LS + isotype) [41]: 1500 ng/mL
pseudovirus neutralization Emax, Vero E6 (sotrovimab VH/VL-huIgG1-LS + isotype) (% neutralization) [33]: 71.9
pseudovirus neutralization Emax, Vero E6 (sotrovimab VH/VL-huIgG1-LS + isotype) (% neutralization) [34]: 96.9
pseudovirus neutralization Emax, Vero E6 (sotrovimab VH/VL-huIgG1-LS + isotype) (% neutralization) [35]: 93.4
